Laboratory results published in PMC3724782, “The LDL Receptor-Related Protein 1 (LRP1) Regulates the PDGF Signaling Pathway by Binding the Protein Phosphatase SHP-2 and Modulating SHP-2- Mediated PDGF Signaling Events” (PLoS ONE, 2013).
Read-outs that look alike come from different tables or passages of the source.

T1: recombinant human SHP-2 (human, UniProt Q06124 1-593)
T1 construct: SHP-2, protein tyrosine phosphatase with two SH2 domains, human, recombinant; The supplier is named only in the SPR methods; source: bought: R&D Systems, 1894-SH-100
T1 sequence (looked up): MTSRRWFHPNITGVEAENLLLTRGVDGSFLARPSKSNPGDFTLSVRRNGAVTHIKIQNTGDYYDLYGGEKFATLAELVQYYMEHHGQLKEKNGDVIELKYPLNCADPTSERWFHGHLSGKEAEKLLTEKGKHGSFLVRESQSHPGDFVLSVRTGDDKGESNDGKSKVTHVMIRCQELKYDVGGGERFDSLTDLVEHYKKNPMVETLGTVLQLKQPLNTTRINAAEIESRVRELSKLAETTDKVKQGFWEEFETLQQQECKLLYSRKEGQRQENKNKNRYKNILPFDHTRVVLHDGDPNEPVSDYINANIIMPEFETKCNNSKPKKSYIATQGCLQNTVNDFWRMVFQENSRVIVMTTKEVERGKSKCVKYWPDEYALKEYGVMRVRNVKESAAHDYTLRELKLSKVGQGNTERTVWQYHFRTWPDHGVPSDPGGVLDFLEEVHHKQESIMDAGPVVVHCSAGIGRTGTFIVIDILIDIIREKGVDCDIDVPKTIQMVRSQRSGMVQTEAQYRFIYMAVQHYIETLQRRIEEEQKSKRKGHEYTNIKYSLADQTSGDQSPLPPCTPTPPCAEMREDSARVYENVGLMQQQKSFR


Target: T1, recombinant human SHP-2
Assay: ELISA; wells coated with SHP-2 (5 µg/mL, TBS pH 8) or BSA; GST:LRP1-ICD or PDGFRβ KD titrated in TBS, 0.5% BSA, 0.05% Tween 20, sodium orthovanadate, overnight at 4°C; detected with anti-GST or anti-PDGFRβ antibody; fit to a single class of sites

Molecule	Kd [nM]	Kd (both partners purified) [nM]
phosphorylated GST:LRP1-ICD (LDL receptor-related protein 1 intracellular domain fused to glutathione S-transferase, tyrosine-phosphorylated) (domain or fragment)	18	–
phosphorylated PDGFRβ kinase domain (domain or fragment, UniProt P09619 558-1106, looked up, phosphotyrosine (autophosphorylated with ATP and MgCl2; sites not mapped here), PDGF receptor β (PDGFRβ), kinase domain (KD); as far as I recall the product is a tagged human cytoplasmic fragment reaching to the C-terminus, to be checked with the supplier; also called pPDGFRβ KD; phospho-PDGFRβ KD; source: bought: Millipore (14-463); phosphorylated by incubating the protein with 1 mM ATP and 1 mM MgCl2) KKPRYEIRWKVIESVSSDGHEYIYVDPMQLPYDSTWELPRDQLVLGRTLGSGAFGQVVEATAHGLSHSQATMKVAVKMLKSTARSSEKQALMSELKIMSHLGPHLNVVNLLGACTKGGPIYIITEYCRYGDLVDYLHRNKHTFLQHHSDKRRPPSAELYSNALPVGLPLPSHVSLTGESDGGYMDMSKDESVDYVPMLDMKGDVKYADIESSNYMAPYDNYVPSAPERTCRATLINESPVLSYMDLVGFSYQVANGMEFLASKNCVHRDLAARNVLICEGKLVKICDFGLARDIMRDSNYISKGSTFLPLKWMAPESIFNSLYTTLSDVWSFGILLWEIFTLGGTPYPELPMNEQFYNAIKRGYRMAQPAHASDEIYEIMQKCWEEKFEIRPPFSQLVLLLERLLGEGYKKKYQQVDEEFLRSDHPAILRSQARLPGFHGLRSPLDTSSVLYTAVQPNEGDNDYIIPLPDPKPEVADEGPLEGSPSLASSTLNEVNTSSTISCDSPLEPQDEPEPEPQLELQVEPEPELEQLPDSGCPAPRAEAEDSFL	–	7.8 ± 1
unphosphorylated PDGFRβ kinase domain (domain or fragment, UniProt P09619 558-1106, looked up, PDGF receptor β (PDGFRβ), kinase domain (KD); also called PDGFRβ KD; non-phosphorylated PDGFRβ KD; source: bought: Millipore (14-463)) KKPRYEIRWKVIESVSSDGHEYIYVDPMQLPYDSTWELPRDQLVLGRTLGSGAFGQVVEATAHGLSHSQATMKVAVKMLKSTARSSEKQALMSELKIMSHLGPHLNVVNLLGACTKGGPIYIITEYCRYGDLVDYLHRNKHTFLQHHSDKRRPPSAELYSNALPVGLPLPSHVSLTGESDGGYMDMSKDESVDYVPMLDMKGDVKYADIESSNYMAPYDNYVPSAPERTCRATLINESPVLSYMDLVGFSYQVANGMEFLASKNCVHRDLAARNVLICEGKLVKICDFGLARDIMRDSNYISKGSTFLPLKWMAPESIFNSLYTTLSDVWSFGILLWEIFTLGGTPYPELPMNEQFYNAIKRGYRMAQPAHASDEIYEIMQKCWEEKFEIRPPFSQLVLLLERLLGEGYKKKYQQVDEEFLRSDHPAILRSQARLPGFHGLRSPLDTSSVLYTAVQPNEGDNDYIIPLPDPKPEVADEGPLEGSPSLASSTLNEVNTSSTISCDSPLEPQDEPEPEPQLELQVEPEPELEQLPDSGCPAPRAEAEDSFL	–	326 ± 68
